Data published in patent US10695406B2, “Modulation of cellular stress using a B-cell oxidative and/or endoplasmic reticulum stress inhibitor and a targeting agent” (THE UNIVERSITY OF QUEENSLAND, priority 2014, dated 2020).

B1: MPBS-51: IL-22-GLP-1R ligand fusion protein, sequence in FIG. 36, made by Novo Nordisk A/S (protein)
chain: EGTFTSDVSSYLEGQAAKEFIAWLVKGRGGGSSSGGGSSSGGGSSSGGGSSSGAPISSHCRLDKSNFQQPYITNRTFMLAKEASLADNNTDVRLIGEKLFHGVSMSERCYLMKQVLNFTLEEVLFPQSDRFQPYMQEWPFLARLSNRLSTCHIEGDDLHIQRNVQKLKDTVKKLGESGEIKAIGELDLLFMSLRNACIGGSHHHHHH
modifications: MPBS-51 - fusion protein comrpsing a GLP-1 ligand and IL-22
B2: MPBS-50: IL-22-GLP-1R ligand fusion protein, sequence in FIG. 36, made by Novo Nordisk A/S (protein)
chain: EGTFTSDVSSYLEGQAAKEFIAWLVKGRHGEGTFTSDVSSYLEGQAAKEFIAWLVKGRAPISSHCRLDKSNFQQPYITNRTFMLAKEASLADNNTDVRLIGEKLFHGVSMSERCYLMKQVLNFTLEEVLFPQSDRFQPYMQEVVPFLARLSNRLSTCHIEGDDLHIQRNVQKLKDTVKKLGESGEIKAIGELDLLFMSLRNACIGGSHHHHHH
modifications: MPBS-50 - fusion protein comrpsing a GLP-1 ligand and IL-22
B3: MPBS-52: IL-22-GLP-1R ligand fusion protein, sequence in FIG. 36, made by Novo Nordisk A/S (protein)
chain: DLSKQMEEEAVRLFIEWLKNGGPSSGAPPPSGGSSSGGGSSSGGGSSSGGGSSSGAPISSHCRLDKSNFQQPYITNRTFMLAKEASLADNNTDVRLIGEKLFHGVSMSERCYLMKQVLNFTLEEVLFPQSDRFQPYMQEVVPFLARLSNRLSTCHIEGDDLHIQRNVQKLKDTVKKLGESGEIKAIGELDLLFMSLRNACIGGSHHHHHH
modifications: MPBS-52 - fusion protein comrpsing a GLP-1 ligand and IL-22

Assays:
[1] = Clearance of IL-22 and IL-22 fusion proteins from serum; type: in vivo, C57BL/6 mice; settings: 256 ng/g human IL-22 or molar equivalents, i.p.
Experimental: (§1) Targeting to IL-22 to pancreas: Non-obese male C57BL/6 at 6-8 weeks of age. Each IL-22-GLP-1R ligand fusion protein or hIL-22 was administered i.p. at 256 ng/g of IL-22 and the molar equivalents for the individual fusion proteins (n=3 per regimen). IL-22-ScaB1 was administered at […]. Control mice received a PBS control i.p. injection only.
Serum concentrations of IL-22 and the IL-22-GLP-1R ligand fusion proteins were determined using a human IL-22 double-determinant ELISA (Biolegend; 434505) against a standard curve for the individual fusion proteins.

[2] = test system: mice with high fat diet induced obesity; assay: Dose-finding efficacy study (IPGTT) in mice on a high fat diet for 27 weeks; type: in vivo, C57BL/6 male mice
Experimental: C57BL/6 male mice from 6-8 weeks of age were fed a high fat diet containing 46% of available energy as saturated fat, 34% carbohydrate, 20% protein (Speciality feeds, SF04-027) for 27 weeks and treated as follows:
IL-22-GLP-1R ligand fusion protein or IL-22 alone were administered twice weekly i.p. at the following doses: 1, 4, 16, 64 and 256 ng/g of IL-22 (0.12-15.4 nmoles/g) and the molar equivalents for IL-22-GLP-1 fusion proteins (n=3 per regimen, except for the lowest dose where n=2); control mice received PBS control only. A fasted Intraperitoneal glucose tolerance tests (IPGTT) was performed (2 g kg-i glucose) on day 14 when the experiment was terminated (tissues were not kept for analysis). Body weight was recorded on days 0, 5, 10 and 13.

Murine MIN6N8 cells = assay: ERAI-sXBP1 reporter ER stress in MIN6N8 cells with 0.5 mM palmitate; type: cell-based; settings: for ER stress caused by the protein alone: 15.4 nM, no palmitate; for ER stress caused by the protein alone / protection from palmitate-induced ER stress: 24 hours; for protection from palmitate-induced ER stress: co-treated with 0.5 mM palmitate, increasing concentrations; for in vitro efficacy for suppression of ER and oxidative stress (conclusion): murine and human cells
Experimental: (§2) Cell culture: Murine MIN6N8 cells were tested negative for mycoplasma. Cells were routinely cultured in phenol-red free DMEM (Life Technologies) containing 25 mM glucose (3.4 g/L sodium bicarbonate, 50 U/mL penicillin and streptomycin, 71.5 μM β-mercaptoethanol and 10% heat inactivated fetal bovine serum) and transferred to DMEM as above with 5.5 mM glucose 48 h prior to experimentation. Human LS174T cells were cultured in DMEM containing 10% heat-inactivated fetal bovine serum, 50 U mL^−1 penicillin and streptomycin.
ER Stress Measurement: MIN6N8 cells were transfected with the ERAI reporter plasmid (F-XBP1ΔDBD-venus, using Lipofectamine 2000 according to the manufacturer's instructions. For ERAI there was negligible fluorescence in the absence of ER stressors, but upon induction of ER stress, splicing of XBP1 mRNA by IRE1a results in the translation of Venus but not an active form of XBP1. Fluorescence was measured (excitation: 485 nm; emission: 520 nm) using a POLARstar Omega plate reader and cells were treated 48 h after transfection. […] After 24 h, ERAI-sXBP1 GFP reporter fluorescence was measured.

STAT3 phosphorylation = assay: pStat3 staining in pancreatic islets vs liver, intestine and skin; type: in vivo, C57BL/6 mice; settings: for pStat3 ratio pancreatic islets vs intestine, fold change relative to human IL-22 / pStat3 ratio pancreatic islets vs liver, fold change relative to human IL-22 / pStat3 ratio pancreatic islets vs skin, fold change relative to human IL-22: molar equivalent of 256 ng/g IL-22, 30 min
Experimental: as §1
To assess in vivo activation of the IL-22 receptor signaling pathway, after 30 min the mice were sacrificed and the following tissues were snap frozen and sections were prepared for each mouse: pancreas, skin (ear, tail), colon (rolled), and liver. Sections were stained by immunofluorescence for phosphorylated STAT3 using the Phospho-Stat3 (Tyr705) (D3A7) antibody.

Human LS174T cells = assay: Oxidative stress (nitrite, Griess assay) in LS174T cells with 0.5 mM palmitate; type: cell-based; settings: 2 h prior to 0.5 mM palmitate for 30 min
Experimental: as §2
The Griess Reagent Kit for Nitrite Determination was performed according to the manufacturer's instructions (Molecular Probes) to assess the intracellular levels of nitrite (the stable metabolite of nitric oxide) using lysates of β-cells prepared in RIPA buffer (150 mM NaCl, 1% NP40, 0.5% sodium deoxycholate, 0.1% SDS, 50 mM Tris, pH 7.5).

| Molecule | clearance / serum concentration over the first 2 hours [1] | body weight changes during treatment ([2]; days 0, 5, 10 and 13) | mean reduction in the increased AUC of the IPGTT of HFD vs normal chow fed control mice ([2]; doses >0.96 nmoles/g, two-week therapy) [%] | efficacy in IPGTT below 0.96 nmoles/g ([2]; two lowest doses) | ER stress caused by the protein alone (Murine MIN6N8 cells) | fold more protein required for the same effect as recombinant mouse IL-22 in reducing ER stress (Murine MIN6N8 cells; murine MIN6N8 cells, 0.5 mM palmitate, 24 h) [fold] | STAT3 phosphorylation in tissues in vivo (STAT3 phosphorylation; 30 min after administration) | pStat3 ratio pancreatic islets vs intestine, fold change relative to human IL-22 (STAT3 phosphorylation) | pStat3 ratio pancreatic islets vs liver, fold change relative to human IL-22 (STAT3 phosphorylation) | pStat3 ratio pancreatic islets vs skin, fold change relative to human IL-22 (STAT3 phosphorylation) | protection from palmitate-induced ER stress (Murine MIN6N8 cells) | in vitro efficacy for suppression of ER and oxidative stress (conclusion) (Murine MIN6N8 cells) | protection from palmitate-induced oxidative stress (nitrite production) (Human LS174T cells) |
| --- | --- | --- | --- | --- | --- | --- | --- | --- | --- | --- | --- | --- | --- |
| human IL-22: recombinant human IL-22 | cleared slightly more slowly | little change in body weight | > 50 | diminished substantially | did not cause ER stress | ~16 | – | – | – | – | – | – | – |
| B1 | lower and somewhat more extended/later peak concentration | – | – | – | did not cause ER stress | – | did induce STAT3 phosphorylation in the pancreas as well as liver and gut | not greater than for native human IL-22 | not greater than for native human IL-22 | 113 fold | did not effectively suppress ER stress at any of the concentrations tested | appears inactive in-vitro | did not effectively suppress oxidative stress at any of the concentrations tested |
| B2 | cleared with similar kinetics to recombinant human IL-22 | – | – | – | did not cause ER stress | – | – | not greater than for native human IL-22 | not greater than for native human IL-22 | 45 fold | inhibited ER stress in a dose dependent manner at a similar efficacy to a molar equivalent concentration of human IL-22 | have retained in vitro efficacy | inhibited oxidative stress (nitrite production) but only toward the highest end of the concentration range used |
| B3 | lower and somewhat more extended/later peak concentration | – | – | – | did not cause ER stress | – | – | 338 fold | 396 fold | 4,840 fold | effectively suppressed ER stress | have retained in vitro efficacy | effectively suppressed oxidative stress with a similar efficacy to equivalent molar concentrations of human IL-22 |
